According to patent US20240116985A1 (published 2024):
Starred links: 1 amine or outer side, 2 acyl side, 3 side chain; linkers in the order of their positions; H or OH if unused. Positions of bridges follow the written chain, without caps; N, C: chain ends. Non-standard residues stand in square brackets, D forms with d. Primed or numbered codes have the meaning given here. PyrS2″ = (S)-3-amino-1-((pent-4-en-1-yloxy)carbonyl)pyrrolidine-3-carboxylic acid (stapling residue), C=CCCCOC(=O)N1CC[C@@](N[*:1])(C(=O)[*:2])C1; B5(4) = 2,2-bis(4-pentenyl)glycine = 2-amino-2-(pent-4-en-1-yl)hept-6-enoic acid (stitching residue), C=CCCCC(CCCC=C)(N[*:1])C(=O)[*:2]; B5(5) = 2,2-bis(4-pentenyl)glycine, 2-amino-2-(pent-4-en-1-yl)hept-6-enoic acid (stitching residue), C=CCCCC(CCCC=C)(N[*:1])C(=O)[*:2]; TfeGA = (S)-2-amino-3-((carboxymethyl)(2,2,2-trifluoroethyl)amino)propanoic acid, O=C([C@H](CN(CC(=O)[*:3])CC(F)(F)F)N[*:1])[*:2]; PyrS2 = (S)-3-amino-1-((pent-4-en-1-yloxy)carbonyl)pyrrolidine-3-carboxylic acid, C=CCCCOC(=O)N1CC[C@@](N[*:1])(C(=O)[*:2])C1; B5(19) = 2-amino-2-(pent-4-en-1-yl)hept-6-enoic acid (bis(4-pentenyl)glycine), C=CCCCC(CCCC=C)(N[*:1])C(=O)[*:2]; AcLys″ = N6-acetyl-lysine, CC(=O)NCCCC[C@H](N[*:1])C(=O)[*:2]; Phe(F5) = N[C@@H](Cc1c(F)c(F)c(F)c(F)c1F)C(=O)O; Phe(2-CF3) = N[C@@H](Cc1ccccc1C(F)(F)F)C(=O)O; hLeu(5-Me) = CC(C)(C)CC[C@H](N)C(=O)O; Bta = N[C@@H](Cc1csc2ccccc12)C(=O)O; hTyr = N[C@@H](CCc1ccc(O)cc1)C(=O)O; αAllylPro = C=CC[C@@]1(C(=O)O)CCCN1; tBuAla = CC(C)(C)C[C@H](N)C(=O)O; 3Thi = N[C@@H](Cc1ccsc1)C(=O)O; Cha = N[C@@H](CC1CCCCC1)C(=O)O; PyrS2(4) = not defined here; TfeGA″ = not defined here; hSer = N[C@@H](CCO)C(=O)O; Nle = CCCC[C@H](N)C(=O)O

T1: B-cat-Halo (UniProt P35222 2-781)
T1 sequence (looked up): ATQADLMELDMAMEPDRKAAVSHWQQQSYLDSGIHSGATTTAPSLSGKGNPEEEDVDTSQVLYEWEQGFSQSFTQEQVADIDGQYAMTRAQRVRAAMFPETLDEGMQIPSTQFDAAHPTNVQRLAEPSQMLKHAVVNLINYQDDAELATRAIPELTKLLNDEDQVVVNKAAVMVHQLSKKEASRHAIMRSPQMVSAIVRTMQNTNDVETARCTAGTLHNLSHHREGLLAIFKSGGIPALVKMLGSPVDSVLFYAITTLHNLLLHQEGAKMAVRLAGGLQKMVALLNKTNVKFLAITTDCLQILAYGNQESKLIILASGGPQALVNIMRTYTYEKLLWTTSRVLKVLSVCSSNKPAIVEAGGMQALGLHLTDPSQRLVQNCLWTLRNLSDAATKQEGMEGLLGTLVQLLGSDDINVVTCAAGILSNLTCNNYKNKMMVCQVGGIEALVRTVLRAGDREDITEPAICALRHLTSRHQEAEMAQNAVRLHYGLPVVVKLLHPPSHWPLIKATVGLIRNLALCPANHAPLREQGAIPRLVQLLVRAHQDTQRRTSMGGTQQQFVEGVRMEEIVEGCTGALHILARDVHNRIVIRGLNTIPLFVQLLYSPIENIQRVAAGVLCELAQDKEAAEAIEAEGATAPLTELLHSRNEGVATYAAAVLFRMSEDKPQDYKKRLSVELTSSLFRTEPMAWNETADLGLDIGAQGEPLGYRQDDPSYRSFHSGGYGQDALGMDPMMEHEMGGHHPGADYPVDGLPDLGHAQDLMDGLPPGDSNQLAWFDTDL

T2: B-cat-Halo (UniProt P35222 1-781)
T2 sequence (looked up): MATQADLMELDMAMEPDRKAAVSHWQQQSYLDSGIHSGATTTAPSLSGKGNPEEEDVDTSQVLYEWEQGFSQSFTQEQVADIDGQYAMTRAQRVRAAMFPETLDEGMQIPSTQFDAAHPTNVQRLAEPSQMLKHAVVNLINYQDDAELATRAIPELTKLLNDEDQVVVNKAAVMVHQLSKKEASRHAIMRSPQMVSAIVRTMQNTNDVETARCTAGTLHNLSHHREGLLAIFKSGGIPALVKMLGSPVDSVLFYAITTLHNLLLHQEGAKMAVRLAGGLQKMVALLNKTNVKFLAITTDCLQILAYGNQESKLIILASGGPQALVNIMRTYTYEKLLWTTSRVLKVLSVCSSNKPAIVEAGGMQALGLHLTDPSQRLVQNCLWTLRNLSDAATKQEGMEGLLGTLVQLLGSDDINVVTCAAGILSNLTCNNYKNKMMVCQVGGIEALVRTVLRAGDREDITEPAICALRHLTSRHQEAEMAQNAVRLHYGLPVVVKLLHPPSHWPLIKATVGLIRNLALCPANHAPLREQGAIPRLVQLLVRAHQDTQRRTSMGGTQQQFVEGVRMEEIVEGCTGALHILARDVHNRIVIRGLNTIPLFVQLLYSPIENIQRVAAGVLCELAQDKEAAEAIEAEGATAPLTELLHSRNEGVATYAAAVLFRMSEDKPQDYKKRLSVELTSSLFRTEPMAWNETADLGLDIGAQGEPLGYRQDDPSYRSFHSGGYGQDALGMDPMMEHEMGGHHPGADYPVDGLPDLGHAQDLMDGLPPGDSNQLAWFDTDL


What follows are binders tested against T1, B-cat-Halo (assay: cell-based or functional assay).

NanoBRET Abs IC50 [µM]	Binder
10.5	Ac-[αAllylPro]D[tBuAla][B5(19)]D[TfeGA]AAF[Nle][PyrS2][3Thi][Bta]Q-NH2 (staple 1-4, 4-11) [I-1776]
8.7	Ac-[αAllylPro]D[Nle][B5(19)]D[TfeGA]AAFL[PyrS2][3Thi][Bta]Q-NH2 (staple 1-4, 4-11) [I-1777]
42.3	Ac-[αAllylPro]D[tBuAla][B5(19)]D[hTyr]AAFN[PyrS2][3Thi][Bta]Q-NH2 (staple 1-4, 4-11) [I-1785]
34.4	Ac-[αAllylPro]D[tBuAla][B5(19)]D[Phe(F5)]AAFN[PyrS2][3Thi][Bta]Q-NH2 (staple 1-4, 4-11) [I-1790]
> 20	Ac-[αAllylPro]D[tBuAla][B5(19)]DHAAF[hSer][PyrS2][3Thi][Bta]Q-NH2 (staple 1-4, 4-11; not fully specified; printed as Ac-PL3-Asp-Npg-B5-Asp-His-Ala-Ala-Phe-Hse-PyrS2-3Thi-BztA-Gln-NH2) [I-1793]
8.6	Ac-[αAllylPro]D[tBuAla][B5(5)]D[TfeGA]AAF[tBuAla][PyrS2″][3Thi][Bta]Q-NH2 (staple 1-4, 4-11) [I-1773]
> 20	Ac-[αAllylPro]D[tBuAla][B5(19)]D[hTyr]AAF[hSer][PyrS2][3Thi][Bta]Q-NH2 (staple 1-4, 4-11) [I-1786]
> 20	Ac-[αAllylPro]D[tBuAla][B5(19)]DYAAF[hSer][PyrS2][3Thi][Bta]Q-NH2 (staple 1-4, 4-11) [I-1783]
33.9	Ac-[αAllylPro]D[tBuAla][B5(19)]DWAAFN[PyrS2][3Thi][Bta]Q-NH2 (staple 1-4, 4-11) [I-1788]
8.9	Ac-[αAllylPro]D[tBuAla][B5(5)]D[TfeGA″]AAF[Cha][PyrS2(4)][3Thi][Bta]Q-NH2 (staple 1-4, 4-11; not fully specified; reading uncertain) [I-1774]
> 20	Ac-[αAllylPro]D[tBuAla][B5(19)]D[Phe(F5)]AAF[hSer][PyrS2][3Thi][Bta]Q-NH2 (staple 1-4, 4-11) [I-1791]
6.8	Ac-[αAllylPro]D[hLeu(5-Me)][B5(5)]D[TfeGA]AAFL[PyrS2″][3Thi][Bta]Q-NH2 (staple 1-4, 4-11) [I-1772]

The binders below were run against T2, B-cat-Halo (assay: cell-based or functional assay).

NanoBRET Abs IC50 [µM]	Binder
28.6	Ac-[αAllylPro]D[tBuAla][B5(4)]D[TfeGA]AAFL[PyrS2″][Phe(2-CF3)][Bta]Q-NH2 (staple 1-4, 4-11; also: -CH=CH- in each staple reduced to -CH2-CH2-) [I-1714]
27.6	Ac-[αAllylPro]D[tBuAla][B5(4)]D[TfeGA]AAFL[PyrS2″][3Thi][Bta][AcLys″]-NH2 (staple 1-4, 4-11; also: -CH=CH- in each staple reduced to -CH2-CH2-) [I-1719]
